Values of other authors, collected in PMC7927047.

Assays:
[1] = target: Cbl-b (Type I orientation, R904) (Homo sapiens) (UniProt Q13191); experiment: NMR titration
[2] = target: Cbl-b (Type II orientation, R911) (Homo sapiens) (UniProt Q13191); experiment: NMR titration
Sequence of Cbl-b (Type II orientation, R911) (Homo sapiens) (Q13191 whole entry): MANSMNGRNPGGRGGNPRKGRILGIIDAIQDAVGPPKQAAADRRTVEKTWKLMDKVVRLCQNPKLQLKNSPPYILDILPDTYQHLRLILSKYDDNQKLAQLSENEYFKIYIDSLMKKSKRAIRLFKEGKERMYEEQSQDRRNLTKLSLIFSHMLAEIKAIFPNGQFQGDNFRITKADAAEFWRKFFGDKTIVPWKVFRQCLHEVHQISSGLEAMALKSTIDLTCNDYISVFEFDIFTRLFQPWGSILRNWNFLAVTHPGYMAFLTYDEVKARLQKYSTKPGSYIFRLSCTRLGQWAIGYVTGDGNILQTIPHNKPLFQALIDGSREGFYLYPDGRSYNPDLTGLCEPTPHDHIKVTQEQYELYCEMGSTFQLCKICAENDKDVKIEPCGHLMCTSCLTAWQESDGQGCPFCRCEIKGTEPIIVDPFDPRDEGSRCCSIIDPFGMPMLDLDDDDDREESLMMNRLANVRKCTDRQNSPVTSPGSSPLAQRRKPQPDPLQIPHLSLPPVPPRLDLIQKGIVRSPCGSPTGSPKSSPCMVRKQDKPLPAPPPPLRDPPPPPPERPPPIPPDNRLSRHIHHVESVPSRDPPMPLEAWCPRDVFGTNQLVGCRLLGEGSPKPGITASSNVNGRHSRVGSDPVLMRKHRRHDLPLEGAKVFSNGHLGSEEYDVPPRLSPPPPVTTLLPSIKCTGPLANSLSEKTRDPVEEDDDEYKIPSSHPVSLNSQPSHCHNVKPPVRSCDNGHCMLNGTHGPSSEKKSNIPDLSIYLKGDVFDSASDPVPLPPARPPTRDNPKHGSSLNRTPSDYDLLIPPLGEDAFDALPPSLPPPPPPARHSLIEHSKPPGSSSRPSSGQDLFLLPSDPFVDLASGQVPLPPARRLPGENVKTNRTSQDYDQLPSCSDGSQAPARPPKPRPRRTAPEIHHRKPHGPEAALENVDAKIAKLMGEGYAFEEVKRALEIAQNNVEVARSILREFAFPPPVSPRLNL

Sequence of CIN85 SH3 (Q96B97 1-58): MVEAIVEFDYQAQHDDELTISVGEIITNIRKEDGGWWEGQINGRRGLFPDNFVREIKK
Sequence of Cbl-b (Type I orientation, R904) (Homo sapiens) (Q13191 whole entry): as the sequence (Q13191 whole entry) above

- Kd [1]: 46.9 µM
- Kd [2]: 2 µM
Substance: CIN85 SH3 (from UniProt Q96B97)
